Results published in patent publication US20110237462A1 (FUJIFILM, published 2011).

Molecular target: T1, MBP-VH(BGP) labeled with ALEXA FLUOR 555 together with MBP-VL(BGP) labeled with ALEXA FLUOR 647 (labeled with ALEXA FLUOR 647 (labeled residues not stated); labeled with ALEXA FLUOR 555 (labeled residues not stated))
T1 construct: Two separate MBP-fused antibody fragments, covalently immobilized on a carboxymethyl dextran glass substrate; The MBP leader is part of the printed entries; also called fusion protein of anti-osteocalcin (BGP) VH-region polypeptide with MBP; fusion protein of anti-BGP VL-region polypeptide (antibody KTM219) with MBP
Experiment: FRET on immobilization substrates I and J

B1: C-terminal heptapeptide fragment of BGP (RRFYGPY) (peptide)
peptide: RRFYGPY
notes: also called BGP heptapeptide; BGP heptapeptide (RRFYGPY)
Question: Does B1 bind?
Answer: binds
